{"source": "paper PMC6380599", "about": "(PLoS Pathogens, 2019)", "binders": {"B1": {"name": "Ab10 IgG1 antibody (antibody, V domains shown)", "VH": "EVQLVESGGGVVQPGRSLRLSCAASGFTFSGYGIHWVRQAPGKGLEWVALISYDGSNKYYADSVKGRFTISRDNSKNTLYLQMNSLRAEDTAVYYCAKDRDYFGSGFFDYWGQGTLVTVSS", "VL": "ELVMTQSPSSLSASVGDTVTITCRASQSIYTYLNWYHQTPGKAPKLLISAASSLQSGVPSRFSGSGSGTDFTLTISSLQPEDFATYYCQQYADVPVTFGGGTKLEIK", "notes": "also called Ab10 mAb; human IgG1 monoclonal antibody Ab10; source: HEK 293F, transfected, purified from culture supernatant (MabSelect)"}}, "biological_target": "T1, histidine tagged SFTSV Gn-Cκ (Gn ectodomain, strain Gangwon/Korea/2012) (SFTSV (Dabie bandavirus) strain …, UniProt U3GR55, strain)", "T1 construct": "source: HEK 293F or Expi293F, transfected, purified", "assay": "SPR; Biacore T200, […]; dissociation 5 min in PBS with 0.005% Tween20", "conditions": "both partners purified"}
{"binder": "B1", "values": [{"measurement": "Kd", "result": 0.104, "unit": "nM"}, {"measurement": "koff", "result": "7.7e-05", "unit": "s⁻¹"}, {"measurement": "kon", "result": 740000, "unit": "M⁻¹ s⁻¹"}]}
